Laboratory results published in PMC7160673 (2020).
Read-outs that look alike come from different tables or passages of the source. Where no end group is shown, it is not given here. [ ]: non-standard residue; d: D form. The star is where a group is joined. 5FAM = O=C1OC2(c3ccc(O)cc3Oc3cc(O)ccc32)c2ccc(C(=O)*)cc21; Lys(Me3) = C[N+](C)(C)CCCC[C@H](N)C(=O)O

T1: Chromodomain Y-like protein 2 chromodomain
T1 chain: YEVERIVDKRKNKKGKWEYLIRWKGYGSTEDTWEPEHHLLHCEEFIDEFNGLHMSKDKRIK

T2: M Phase Phosphoprotein 8 chromodomain (UniProt Q99549 55-116)
T2 chain: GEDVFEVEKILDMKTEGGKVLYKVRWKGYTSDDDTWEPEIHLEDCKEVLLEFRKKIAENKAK

B1: FAM-TAR(Kme3)STG peptide (H3K9me3) (peptide)
chain: 5FAM-TAR[Lys(Me3)]STG
modifications: also: flanking glycines, number not given here
B2: FAM-WAY(Kme3)TGK peptide (peptide)
chain: 5FAM-WAY[Lys(Me3)]TGK
modifications: also: flanking glycines, number not given here

Tests used:
Assay in all cases: FP
[1] = target: T1, Chromodomain Y-like protein 2 …
[2] = target: T2, M Phase Phosphoprotein 8 chromodomain
[3] = target: T2, M Phase Phosphoprotein 8 chromodomain

Binder | Kd [1] | Kd [2] | Kd [3]
B1 | 18.4 µM | 11.5 µM | –
B2 | – | – | 1.37 µM
